Here are results for three molecules from patent publication US11357847B2, “Modified HSV gD protein and vaccine containing same” (KM Biologics Co., Ltd., priority 2017, dated 2022).

The subject of series [1] is various anti-gD2 antibodies. In words: Reactivity of gD variants with anti-gD2 antibodies (competitive ELISA). The format is binding, human. Particulars: immobilized gD variant. From the text:
Each anti-gD2 monoclonal antibody and each gD variant were expressed using an Expi293 expression system.

A short description of series [2]: Properties of produced gD variants (aggregates). The format is physicochemical. The note with it: expressed and purified variant. From the text: Four gD1-275-based variants were produced. Since these were FR3-deficient variants, V231W mutations affecting FR3 were not investigated. […] Meanwhile, eight gD1-315-based variants were produced, and none of the variants were less than the original gD1-315 in both properties and expression level.

For a further series, the system named is HSV-2 MS strain. In words: Mouse infection-prevention test of modified gD (genital herpes infection model). Type of series: in vivo, BALB/c mice. The arrangement: key to Determination (vs gD1-315) / Determination# (vs gD1-315): ++: minimum effective dose based on the Significant difference test in three-fold common ratio relative to gD1-315(WT) of two or more doses stronger; +: those of one dose stronger; ±: those of an equivalent value. Here is the method:
Immunogenicity test of the modified gD antigen was performed using the wild-type gD antigen gD1-315 (WT) as a positive control and saline as a negative control. A predetermined amount of antigen was dissolved in saline for injection (saline) with MPLA (10 μg/mouse) and CpG (1 μg/mouse) and immunized to mice at a volume of 200 μL/mouse. BALB/c mice (5 weeks old, female) were used for the study and immunized subcutaneously in back at 2-week intervals for a total of 3 times (N=4 cases per group). Two weeks after the final immunization (third dose), blood was collected and serum was prepared for each individual. The prepared serum was serially diluted and assessed for neutralizing antibody-inducing activity against HSV-2 (50% plaque number-reducing activity).
An infection-prevention test in the preventive administration of modified gD antigen was performed using a mouse genital herpes infection model. Similar to the mouse immunogenicity test described above, mice were immunized with the number of N=10 cases per group. Depo-Provera was inoculated subcutaneously at 2 mg/mouse 6 days prior to viral inoculation to improve the multiplicity of infection upon viral inoculation 2 weeks after final immunization (third dose). 5×10^5 PFU/20 μL HSV-2 MS strain was inoculated transvaginally under anesthesia and observed for 21 days. Infection prevention ability was evaluated using survival time (survival rate) as index.
The infection model of the mouse genital herpes infection model was used to evaluate infection prevention ability of various modified gD in preventive administration. The number of animal cases in each group was set to n=10, and wild-type gD (gD1-315) was used as a positive control and saline was used as a negative control. The experiments were performed a total of four times (experiments 1-4) and four doses of 0.1 μg/mouse/time, 0.03 μg/mouse/time, 0.01 μg/mouse/time and 0.003 μg/mouse/time were set for all of the positive control, negative control, and subject modified gD antigen. Depo-Provera was inoculated subcutaneously at 2 mg/mouse 6 days prior to viral inoculation to improve the multiplicity of infection upon viral inoculation 2 weeks after final immunization (third dose). 5×10^5 PFU/20 HSV-2 MS strain was inoculated transvaginally under anesthesia and observed for 21 days. Infection prevention ability was evaluated using survival time (survival rate) as index. Mean values of those were plotted in the graph. A Significant difference test for the negative control group was performed by the Kaplan-Meier method, and those with a minimum effective dose based on the Significant difference test in three-fold common ratio relative to wild type gD of two or more doses stronger were determined to be “++”, those of one dose stronger were determined to be “+”, and those of an equivalent value were determined to be “±”.

[3] abbreviates: Experiment 4, 0.003 μg/head/time.
[4] abbreviates: Experiment 4, 0.01 μg/head/time.
[5] abbreviates: Experiment 4, 0.03 μg/head/time.
Setting [6] is: Experiment 4, minimum effective dose relative to gD1-315(WT).
[7] abbreviates: Experiment 1, 0.003 μg/head/time.
[8] abbreviates: Experiment 1, 0.01 μg/head/time.
[9] abbreviates: Experiment 1, 0.03 μg/head/time.

B1: gD1-275 (protein)
chain: KYALADPSLKMADPNRFRGKNLPVLDQLTDPPGVKRVYHIQPSLEDPFQPPSIPITVYYAVLERACRSVLLHAPSEAPQIVRGASDEARKHTYNLTIAWYRMGDNCAIPITVMEYTECPYNKSLGVCPIRTQPRWSYYDSFSAVSEDNLGFLMHAPAFETAGTYLRLVKINDWTEITQFILEHRARASCKYALPLRIPPAACLTSKAYQQGVTVDSIGMLPRFIPENQRTVALYSLKIAGWHGPKPPYTSTLLPPELSDTTNATQPELVPEDPED
As to B1, in series [1], the “Reactivity with anti-gD2 antibody 1” value is “− ((−): less than 30%)”, the “Reactivity with anti-gD2 antibody 5” value was “+ ((+): 70% or more)”, the “Reactivity with anti-gD2 antibody 13” value is recorded as “+ ((+): 70% or more)” and the “Reactivity with anti-gD2 antibody 72” value is recorded as “+ ((+): 70% or more)”. In series [1], the “Reactivity with anti-gD2 antibody 75” value is recorded as “+ ((+): 70% or more)”, the “Reactivity with anti-gD2 antibody 78” value is reported as “+ ((+): 70% or more)” and the “Reactivity with anti-gD2 antibody 82” value was “+ ((+): 70% or more)”. Moreover, the “Properties of the variant (aggregates)” value in series [2] is on record as “Aggregation”.

B2: gD1-275v3-55: gD1-275 with glycochain at SC-F, linked to T cell epitope peptide DP5 (protein)
chain: KYALADPSLKMADPNRFRGKNLPVLDQLTDPPGVKRVYHIQPSLEDPFQNASIPITVYYAVLERACRSVLLHAPSEAPQIVRGASDEARKHTYNLTIAWYRMGDNCAIPITVMEYTECPYNKSLGVCPIRTQPRWSYYDSFSAVSEDNLGFLMHAPAFETAGTYLRLVKINDWTEITQFILEHRARASCKYALPLRIPPAACLTSKAYQQGVTVDSIGMLPRFIPENQRTVALYSLKIAGWHGPKPPYTSTLLPPELSDTTNATQPELVPEDPEDGPGPGIAFWVRRRAQMAPKPLRIAFWVRRRAQMAPKPLRHHHHHH
modifications: left off: small tags and cut ends
In the case of B2, in series [1], the “Reactivity with anti-gD2 antibody 1” value is reported as “− ((−): less than 30%)”, the “Reactivity with anti-gD2 antibody 5” value is “− ((−): less than 30%)”, the “Reactivity with anti-gD2 antibody 13” value is listed as “− ((−): less than 30%)” and the “Reactivity with anti-gD2 antibody 72” value is listed as “− ((−): less than 30%)”. In series [1], the “Reactivity with anti-gD2 antibody 75” value is given as “− ((−): less than 30%)”, the “Reactivity with anti-gD2 antibody 78” value is listed as “− ((−): less than 30%)” and the “Reactivity with anti-gD2 antibody 82” value is reported as “+ ((+): 70% or more)”. For the same molecule, in the series on HSV-2 MS strain (setting [3]), the “Mean survival time” value stood at 7 days and the “Significant difference test (vs saline)” value was “N.S”. Also, in the series on HSV-2 MS strain (setting [4]), the “Mean survival time” value is listed as 7.5 days and the “Significant difference test (vs saline)” value is listed as “N.S”. Also, in the series on HSV-2 MS strain (setting [5]), the “Mean survival time” value is greater than 21 days and the “Significant difference test (vs saline)” value is “** (** 0.001 = < p < 0.01)”. Further, in the series on HSV-2 MS strain (Experiment 4, 0.1 μg/head/time), the “Mean survival time” value is greater than 21 days and the “Significant difference test (vs saline)” value was “** (** 0.001 = < p < 0.01)”. The “Determination# (vs gD1-315)” value in the series with HSV-2 MS strain (setting [6]) was “+”. Moreover, the “Properties of the variant (aggregates)” value in series [2] is “presence of aggregates was confirmed”.

B3: gD1-275v5-55: gD1-275 with glycochains at SC-A, SC-F, linked to T cell epitope peptide DP5 (protein)
chain: KYALADPSLKMADPNRFRGKNLPVLDQLTDPPGVKRVYHIQPSLEDPFQNASIPITVYYAVLERACRSVLLHAPSEAPQIVRGASDEARKHTYNLTIAWYRMGDNCAIPITVMEYTECPYNKSLGVCPIRTQPRWSYYDSFSAVSEDNLGFLMHAPAFETAGTYLRLVKINDWTEITQFILEHRANASCKYALPLRIPPAACLTSKAYQQGVTVDSIGMLPRFIPENQRTVALYSLKIAGWHGPKPPYTSTLLPPELSDTTNATQPELVPEDPEDGPGPGIAFWVRRRAQMAPKPLRIAFWVRRRAQMAPKPLRHHHHHH
modifications: left off: small tags and cut ends
As for B3, in series [1], the “Reactivity with anti-gD2 antibody 1” value was “− ((−): less than 30%)”, the “Reactivity with anti-gD2 antibody 5” value was “− ((−): less than 30%)”, the “Reactivity with anti-gD2 antibody 13” value is listed as “− ((−): less than 30%)” and the “Reactivity with anti-gD2 antibody 72” value is recorded as “− ((−): less than 30%)”. In addition, in series [1], the “Reactivity with anti-gD2 antibody 75” value was “− ((−): less than 30%)”, the “Reactivity with anti-gD2 antibody 78” value is on record as “− ((−): less than 30%)” and the “Reactivity with anti-gD2 antibody 82” value was “+ ((+): 70% or more)”. Moreover, in the series on HSV-2 MS strain (setting [7]), the “Mean survival time” value came out at 13 days and the “Significant difference test (vs saline)” value is on record as “*** (*** p < 0.001)”. Besides, in the series with HSV-2 MS strain (setting [8]), the “Mean survival time” value worked out at 11 days and the “Significant difference test (vs saline)” value is “*** (*** p < 0.001)”. Also, in the series on HSV-2 MS strain (setting [9]), the “Mean survival time” value was greater than 21 days and the “Significant difference test (vs saline)” value is “*** (*** p < 0.001)”. Moreover, in the series on HSV-2 MS strain (Experiment 1, 0.1 μg/head/time), the “Mean survival time” value is given as greater than 21 days and the “Significant difference test (vs saline)” value is recorded as “*** (*** p < 0.001)”. In addition, the “Determination (vs gD1-315)” value with HSV-2 MS strain (Experiment 1, minimum effective dose relative to gD1-315(WT)) is “++”. For the same molecule, in the series on HSV-2 MS strain (setting [3]), the “Mean survival time” value stood at 8 days and the “Significant difference test (vs saline)” value is given as “N.S”. In addition, in the series with HSV-2 MS strain (setting [4]), the “Mean survival time” value is 15.5 days and the “Significant difference test (vs saline)” value is on record as “N.S”. For the same molecule, in the series on HSV-2 MS strain (setting [5]), the “Mean survival time” value was greater than 21 days and the “Significant difference test (vs saline)” value is reported as “** (** 0.001 = < p < 0.01)”. Further, in the series on HSV-2 MS strain (Experiment 4, 0.1 μg/head/time), the “Mean survival time” value is greater than 21 days and the “Significant difference test (vs saline)” value was “*** (*** p < 0.001)”. Besides, the “Determination# (vs gD1-315)” value with HSV-2 MS strain (setting [6]) was “+”. Further, in series [2], the “Properties of the variant (aggregates)” value is “well properties”.
